Source: PMC12384393

Legend:
[1] = molecular target: equine LH/CGR-N299Q (equine)
[2] = molecular target: equine LH/CGR-N313Q (equine)
[3] = molecular target: equine LH/CGR-N50Q (equine)
[4] = molecular target: equine LH/CGR-N174Q (equine)
[5] = molecular target: equine lutropin hormone/choriogonadotropin receptor, wild type (equine LH/CGR-WT) (equine)
[6] = molecular target: equine LH/CGR-N99Q (equine)
[7] = molecular target: equine LH/CGR-N195Q (equine)
[8] = molecular target: equine LH/CGR-N291Q (equine)
[9] = molecular target: equine LH/CGR-N299Q (equine); remark: listed apart in the source
[10] = molecular target: equine LH/CGR-N313Q (equine); remark: listed apart in the source
[11] = molecular target: equine LH/CGR-N50Q (equine); remark: listed apart in the source
[12] = molecular target: equine LH/CGR-N174Q (equine); remark: listed apart in the source
[13] = molecular target: equine lutropin hormone/choriogonadotropin receptor, wild type (equine LH/CGR-WT) (equine); remark: listed apart in the source
[14] = molecular target: equine LH/CGR-N99Q (equine); remark: listed apart in the source
[15] = molecular target: equine LH/CGR-N195Q (equine); remark: listed apart in the source
[16] = molecular target: equine LH/CGR-N291Q (equine); remark: listed apart in the source

recombinant equine chorionic gonadotropin (rec-eCG) (from UniProt P08751 21-169; P01220 25-120) (ligand)
EC50 of the cAMP response (HTRF) of transfected CHO-K1 cells stimulated with rec-eCG for 30 min [1]: 0.0269 µg/mL | EC50 of the cAMP response (HTRF) of transfected CHO-K1 cells stimulated with rec-eCG for 30 min [2]: 0.0347 µg/mL | EC50 of the cAMP response (HTRF) of transfected CHO-K1 cells stimulated with rec-eCG for 30 min [3]: 0.0177 µg/mL | EC50 of the cAMP response (HTRF) of transfected CHO-K1 cells stimulated with rec-eCG for 30 min [4]: 0.179 µg/mL | EC50 of the cAMP response (HTRF) of transfected CHO-K1 cells stimulated with rec-eCG for 30 min [5]: 0.0237 µg/mL | EC50 of the cAMP response (HTRF) of transfected CHO-K1 cells stimulated with rec-eCG for 30 min [6]: 0.0241 µg/mL | EC50 of the cAMP response (HTRF) of transfected CHO-K1 cells stimulated with rec-eCG for 30 min [7]: 0.136 µg/mL | EC50 of the cAMP response (HTRF) of transfected CHO-K1 cells stimulated with rec-eCG for 30 min [8]: 0.0184 µg/mL | t1/2 of the loss of cell surface receptor (anti-VSVG ELISA on cells) after rec-eCG treatment, 0-120 min [9]: 12.8 min | t1/2 of the loss of cell surface receptor (anti-VSVG ELISA on cells) after rec-eCG treatment, 0-120 min [10]: 13.3 min | t1/2 of the loss of cell surface receptor (anti-VSVG ELISA on cells) after rec-eCG treatment, 0-120 min [11]: 5.6 min | t1/2 of the loss of cell surface receptor (anti-VSVG ELISA on cells) after rec-eCG treatment, 0-120 min [12]: 3.3 min | t1/2 of the loss of cell surface receptor (anti-VSVG ELISA on cells) after rec-eCG treatment, 0-120 min [13]: 5.6 min | t1/2 of the loss of cell surface receptor (anti-VSVG ELISA on cells) after rec-eCG treatment, 0-120 min [14]: 5.2 min | t1/2 of the loss of cell surface receptor (anti-VSVG ELISA on cells) after rec-eCG treatment, 0-120 min [15]: 31.4 min | t1/2 of the loss of cell surface receptor (anti-VSVG ELISA on cells) after rec-eCG treatment, 0-120 min [16]: 14.3 min
